Publication PMC2191965 (The Journal of Experimental Medicine, 1995)

Legend:
[1] = molecular target: T1, I-As (Mus musculus, UniProt P06345+P14437); type: binding; details: purified I-As; compared with ROIV or with wild-type peptide
T1 sequence (P14437 1-233): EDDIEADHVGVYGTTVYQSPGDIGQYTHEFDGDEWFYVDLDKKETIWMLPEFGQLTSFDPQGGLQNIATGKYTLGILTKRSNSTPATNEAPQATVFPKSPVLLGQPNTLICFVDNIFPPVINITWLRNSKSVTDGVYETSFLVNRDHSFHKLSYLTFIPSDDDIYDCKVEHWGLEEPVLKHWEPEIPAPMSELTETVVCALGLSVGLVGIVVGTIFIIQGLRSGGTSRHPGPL
T1 sequence (P06345 28-263): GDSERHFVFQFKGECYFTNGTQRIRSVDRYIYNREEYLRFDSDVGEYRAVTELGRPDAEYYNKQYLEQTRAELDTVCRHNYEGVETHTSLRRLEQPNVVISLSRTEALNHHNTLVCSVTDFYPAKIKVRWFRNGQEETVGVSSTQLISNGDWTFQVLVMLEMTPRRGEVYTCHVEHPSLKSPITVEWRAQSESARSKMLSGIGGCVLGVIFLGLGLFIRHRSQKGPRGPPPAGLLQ

[2] = molecular target: T2, I-Ab (Mus musculus, UniProt P14434+P14483); details: purified I-Ab; compared with binding to I-As or with wild-type peptide
T2 sequence (P14434 24-256): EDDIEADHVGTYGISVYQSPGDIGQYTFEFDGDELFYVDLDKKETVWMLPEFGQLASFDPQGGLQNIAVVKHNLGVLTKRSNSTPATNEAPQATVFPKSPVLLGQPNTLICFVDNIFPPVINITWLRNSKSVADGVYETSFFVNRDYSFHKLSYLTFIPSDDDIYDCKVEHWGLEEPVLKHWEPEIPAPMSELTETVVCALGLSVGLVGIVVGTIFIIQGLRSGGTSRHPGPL
T2 sequence (P14483 28-265): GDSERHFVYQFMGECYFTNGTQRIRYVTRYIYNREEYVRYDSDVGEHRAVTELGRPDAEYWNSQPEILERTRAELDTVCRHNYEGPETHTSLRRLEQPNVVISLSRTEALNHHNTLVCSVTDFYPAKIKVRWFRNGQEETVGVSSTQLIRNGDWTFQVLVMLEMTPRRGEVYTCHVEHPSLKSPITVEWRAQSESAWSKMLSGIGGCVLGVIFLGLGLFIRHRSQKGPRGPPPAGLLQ

myelin basic protein 81-100: I-As-restricted epitope myelin basic protein 81-100 (HPADPGNRPHLIRLFSRDAP; UniProt P04370 81-100, looked up, fragment)
Binding to I-As, in words [1]: as well as the ROW | Binding to I-Ab, in words [2]: far less affinity
